Experimental data published in the supplement of paper PMC6757056.
± gives the standard deviation of the averaged measurements.

B1: library; a variant is named by its letters at N, in order (parent)
chain: GCUGUCACCGAGAAACUGUGAAGUAUAUCUUAAACCUGGGCACUUAAAAGAUAUAUGGAGUUAGUAGUGCAACCUGCUCGGUCUGAUGAGUCCNNNNNNGGACGAAACAGC

Key:
cyclic di-GMP [1] = variants of: B1; experiment: normalized RNA/DNA level without ligand (relative to sTRSVctl = 100) (log10 (% of sTRSVctl)); HEK293T; ligand: cyclic di-GMP (c-di-GMP-II aptamer); higher = less ribozyme self-cleavage, higher mRNA level; conditions: reporter: mCherry (pCS4076), ligand present: no
Outline: (§1)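 Library plasmids carrying ribozyme switches linked to mCherry, or to eGFP in some ligand experiments, were transfected into HEK293T at 4 µg per 6-well well, with any ligand added 1 h earlier. Seventy-two hours on, total RNA was extracted with EDTA and reverse-transcribed, amplified, barcoded and sequenced. RNA level was RNA over DNA reads normalized to a spiked-in non-cleaving sequence or to the top sequences, then scaled and log-transformed. The top set was 25 sequences, the transform was ×100 and log10, and sequences needed ≥100 DNA reads.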

cyclic di-GMP [2] = variants of: B1; experiment: normalized RNA/DNA level with ligand (relative to sTRSVctl = 100) (log10 (% of sTRSVctl)); HEK293T; ligand: cyclic di-GMP (c-di-GMP-II aptamer); ligand concentration (+) RNA-Seq: 1 mM; higher = less ribozyme self-cleavage, higher mRNA level; conditions: reporter: mCherry (pCS4076), ligand present: yes
Outline: as §1

Variant	normalized RNA/DNA level without ligand (log10) (cyclic di-GMP [1])	normalized RNA/DNA level with ligand (log10) (cyclic di-GMP [2])
GCUGUCACCGAGAAACUGUGAAGUAUAUCUUAAACCUGGGCACUUAAAAGAUAUAUGGAGUUAGUAGUGCAACCUGCUCGGUCUGAUGAGUCCGCGAGCGGACGAAACAGC [GCGAGC]	1.55 ± 0.066	1.71 ± 0.04
GCUGUCACCGAGAAACUGUGAAGUAUAUCUUAAACCUGGGCACUUAAAAGAUAUAUGGAGUUAGUAGUGCAACCUGCUCGGUCUGAUGAGUCCGCGAGUGGACGAAACAGC [GCGAGU]	1.53 ± 0.071	1.69 ± 0.11
GCUGUCACCGAGAAACUGUGAAGUAUAUCUUAAACCUGGGCACUUAAAAGAUAUAUGGAGUUAGUAGUGCAACCUGCUCGGUCUGAUGAGUCCGCGAGGGGACGAAACAGC [GCGAGG]	1.613 ± 0.016	1.75 ± 0.16
GCUGUCACCGAGAAACUGUGAAGUAUAUCUUAAACCUGGGCACUUAAAAGAUAUAUGGAGUUAGUAGUGCAACCUGCUCGGUCUGAUGAGUCCGCGAGAGGACGAAACAGC [GCGAGA]	1.41 ± 0.14	1.63 ± 0.073
GCUGUCACCGAGAAACUGUGAAGUAUAUCUUAAACCUGGGCACUUAAAAGAUAUAUGGAGUUAGUAGUGCAACCUGCUCGGUCUGAUGAGUCCUCGAGGGGACGAAACAGC [UCGAGG]	1.772 ± 0.011	1.87 ± 0.13
GCUGUCACCGAGAAACUGUGAAGUAUAUCUUAAACCUGGGCACUUAAAAGAUAUAUGGAGUUAGUAGUGCAACCUGCUCGGUCUGAUGAGUCCUCGAUCGGACGAAACAGC [UCGAUC]	1.62 ± 0.032	1.79 ± 0.16
GCUGUCACCGAGAAACUGUGAAGUAUAUCUUAAACCUGGGCACUUAAAAGAUAUAUGGAGUUAGUAGUGCAACCUGCUCGGUCUGAUGAGUCCACGAGCGGACGAAACAGC [ACGAGC]	1.62 ± 0.049	1.76 ± 0.084
GCUGUCACCGAGAAACUGUGAAGUAUAUCUUAAACCUGGGCACUUAAAAGAUAUAUGGAGUUAGUAGUGCAACCUGCUCGGUCUGAUGAGUCCACGAGGGGACGAAACAGC [ACGAGG]	1.5 ± 0.06	1.69 ± 0.1
GCUGUCACCGAGAAACUGUGAAGUAUAUCUUAAACCUGGGCACUUAAAAGAUAUAUGGAGUUAGUAGUGCAACCUGCUCGGUCUGAUGAGUCCCCGAUCGGACGAAACAGC [CCGAUC]	1.55 ± 0.019	1.73 ± 0.094
GCUGUCACCGAGAAACUGUGAAGUAUAUCUUAAACCUGGGCACUUAAAAGAUAUAUGGAGUUAGUAGUGCAACCUGCUCGGUCUGAUGAGUCCCCGAUAGGACGAAACAGC [CCGAUA]	1.31 ± 0.13	1.54 ± 0.075
GCUGUCACCGAGAAACUGUGAAGUAUAUCUUAAACCUGGGCACUUAAAAGAUAUAUGGAGUUAGUAGUGCAACCUGCUCGGUCUGAUGAGUCCACGAUAGGACGAAACAGC [ACGAUA]	1.45 ± 0.05	1.68 ± 0.12
GCUGUCACCGAGAAACUGUGAAGUAUAUCUUAAACCUGGGCACUUAAAAGAUAUAUGGAGUUAGUAGUGCAACCUGCUCGGUCUGAUGAGUCCCCGAGUGGACGAAACAGC [CCGAGU]	1.63 ± 0.025	1.8 ± 0.13
GCUGUCACCGAGAAACUGUGAAGUAUAUCUUAAACCUGGGCACUUAAAAGAUAUAUGGAGUUAGUAGUGCAACCUGCUCGGUCUGAUGAGUCCCCGAGGGGACGAAACAGC [CCGAGG]	1.624 ± 0.0052	1.8 ± 0.071
